Experimental findings from PMC5512451 are described below.

In this experiment the target is N90-VRC38.01 IgG (human). The experiment is described as follows: SPR.

With “BG505.DS.T332N.SOSIP.664 gp140 trimer (complex)”, the fold stronger binding of the IgG than of the Fab was greater than 7 fold.
